Assay results as given in patent US20250144213A1 (UTC THERAPEUTICS SHANGHAI, published 2025).

B1: anti-CD40 scFv 40-47 (in LACOSTIM 40-47.28) (scFv)
scFv: QSALTQPASVSGSPGQSITISCTGTSSDVGAYNYVSWYQQLPGKTPKLMIYDVTNRPSGVSNRFSGSKSGNTASLTISGLQAEDEAYYYCGSYTTSSTLIFGGGTELTVLGGGGSGGGGSGGGGSEVHLVESGGGLVQPGGSLRLSCAASGFTFSSNWMSWVRQAPGKGLEWVANINQDGSEKYYVDSVKGRFTISRDNAKNSLYLQLNSLRAEDTAEYYCARGGYRYAYWGQGTLVTVSS
notes: Tested on T cells as part of the LACOSTIM 40-47.28 (scFv fused with CD28), co-electroporated with the anti-Her2 CAR 4D5.BBZ; also called 40-47 scFv
B2: anti-CD40 scFv 40-37 (in LACOSTIM 40-37.28) (scFv)
scFv: SYELTQPPSVSVSPGQTASITCSGDKLGNKYASWYQQKPGQSPVLVIFQDSRRPSGIPERFSGSNSGNTATLTISGTQAMDEADYYCQAWDSSTALFGGGTKLTVLGGGGSGGGGSGGGGSQVQLVQSGGGVVQPGRSLRLSCAASGFTFSSYAMHWVRQAPGKGLEWVAVISKDGSYENYVDSVKGRLAISRDNSKNTLFLQMDSLRPEDTALYFCARDYWYGMDVWGQGTTVTVSS
notes: Tested on T cells as part of the LACOSTIM 40-37.28 (scFv fused with CD28), co-electroporated with the anti-Her2 CAR 4D5.BBZ; also called 40-37 scFv
B3: anti-CD40 scFv 40-52 (in LACOSTIM 40-52.28) (scFv)
scFv: QSALTQPPSASGSPGQSVTISCTGTSSDVGAYNFVSWYQQHPGNAPKLIIYDVRKRPSGIPDRFSASKSGNTASLTVSGLQADDEADYYCSSYAGNNNLVFGGGTKLTVLGGGGSGGGGSGGGGSQVQLVQSGAEVKKPGSSVKVSCKASGGTFSSYAISWVRQAPGQGLEWMGMINPSGGTTSYAQKFQGRVTMTRDTSTSTVYMELSSLRPEDTAVYYCARGFRMDQWGQGTLVTVSS
notes: Tested on T cells as part of the LACOSTIM 40-52.28 (scFv fused with CD28), co-electroporated with the anti-Her2 CAR 4D5.BBZ; also called 40-52 scFv
B4: anti-CD40 scFv 40-45 (in LACOSTIM 40-45.28) (scFv)
scFv: QSALTQPASVSGSPGQSITISCTGTSSDVGGYKYVSWYQQHPGKAPKLMIYDVSNRPSGVSNRFSGSKSGNTASLTISGLQAEDEADYYCSSYTSSSTPHVVFGGGTKVTVLGGGGSGGGGSGGGGSEVHLVESGGGVVQPGRSLRLSCAASGFPFSRYGMHWVRQAPGKGLEWVSYISSSGSTIYYADSVKGRFTISRDNSKNTVSLQMNSLRADDTAVYYCSRGTRPGITGRLGYWGQGTLVTVSS
notes: Tested on T cells as part of the LACOSTIM 40-45.28 (scFv fused with CD28), co-electroporated with the anti-Her2 CAR 4D5.BBZ; also called 40-45 scFv

Biological target: T1, CD40-Fc recombinant protein (human, UniProt P25942 21-193)
T1 construct: Soluble staining reagent; also called CD40-Fc protein; not shown: Fc part
T1 sequence (P25942 21-193 limits assumed): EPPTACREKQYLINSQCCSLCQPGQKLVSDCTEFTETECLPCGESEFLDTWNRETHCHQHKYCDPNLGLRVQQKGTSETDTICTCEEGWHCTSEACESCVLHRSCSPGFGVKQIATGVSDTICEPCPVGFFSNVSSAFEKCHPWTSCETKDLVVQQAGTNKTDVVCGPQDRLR
Experiment: FACS staining of T cells expressing the anti-CD40 scFv-CD28 fusion with CD40-Fc protein (FIG. 64)

Binder	binding result
B1	binds
B2	binds
B3	binds
B4	binds
